Sequences and labels used below:
B1: PKD2L1 (parent)
chain: YSGGGYYLDLPGSRQGSAEALRAL

From the supplement of paper PMC10567573 come the findings set out here.
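Also: lentivirally expressed fusions sorted by FACS into six bins by GFP to DsRed ratio, PSI derived from sequencing read proportions per bin multiplied by bin number.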

In the data set the parent is B1. The data set is described as follows: protein stability index of a GFP-peptide fusion (GPS, HEK-293T) (PSI 1-6); higher = more stable. The conditions noted are these: c terminus: a fixed tail appended.
With YSGGGYYLDLPGSRQGSCEALRAL [A18C], the protein stability index stood at 2.16.

For the variant YSGGGYYLDLPGSRQGSREALRAL [A18R], the protein stability index was 1.71.

With YSGGGYYLDLPGSRQGSNEALRAL [A18N], the protein stability index amounted to 1.86.

YSGGGYYLDLPGSRQGSQEALRAL [A18Q]: the protein stability index came to 2.15.

Regarding YSGGGYYLDLPGSRQGHAEALRAL [S17H], the protein stability index turned out to be 2.36.

With YSGGGYYLDLPGSRQGLAEALRAL [S17L], the protein stability index worked out at 2.13.

On to YSGGGYYLDLPGSRQGGAEALRAL [S17G], for which the protein stability index turned out to be 3.5.

Regarding YSGGGYYLDLPGSRQGYAEALRAL [S17Y], the protein stability index worked out at 2.03.

As to YSGGGYYLDLPGSRQGAAEALRAL [S17A], the protein stability index turned out to be 1.6.

For the variant YSGGGYYLDLPGSRQGPAEALRAL [S17P], the protein stability index came out at 2.32.

Turning to YSGGGYYLDLPGSRQGMAEALRAL [S17M], the protein stability index was found to be 2.3.

On to YSGGGYYLDLPGSRQGEAEALRAL [S17E], for which the protein stability index worked out at 2.

Take YSGGGYYLDLPGSRQGRAEALRAL [S17R]: the protein stability index turned out to be 1.41.

As to YSGGGYYLDLPGSRQGIAEALRAL [S17I], the protein stability index came out at 1.75.

For the variant YSGGGYYLDLPGSRQGNAEALRAL [S17N], the protein stability index came to 2.01.

Regarding YSGGGYYLDLPGSRQGVAEALRAL [S17V], the protein stability index was 1.61.

For the variant YSGGGYYLDLPGSRQGQAEALRAL [S17Q], the protein stability index was determined as 3.08.

Consider YSGGGYYLDLPGSRQGFAEALRAL [S17F], for which the protein stability index was determined as 1.98.

Turning to YSGGGYYLDLPGSRQGCAEALRAL [S17C], the protein stability index is 1.39.

As for YSGGGYYLDLPGSRQGDAEALRAL [S17D], the protein stability index came out at 1.92.

Consider YSGGGYYLDLPGSRQGWAEALRAL [S17W], for which the protein stability index was found to be 1.98.

On to YSGGGYYLDLPGSRQGKAEALRAL [S17K], for which the protein stability index came to 1.78.

Consider YSGGGYYLDLPGSRQGTAEALRAL [S17T], for which the protein stability index is 2.

As for YSGGGYYLDLPGSRQGSAEALRAF [L24F], the protein stability index came to 1.99.

On to YSGGGYYLDLPGSRQGSAEALRAY [L24Y], for which the protein stability index was found to be 2.12.

Regarding YSGGGYYLDLPGSRQGSAEALRAA [L24A], the protein stability index is 1.85.

For the variant YSGGGYYLDLPGSRQGSAEALRAR [L24R], the protein stability index came to 2.34.

Consider YSGGGYYLDLPGSRQGSAEALRAT [L24T], for which the protein stability index came to 1.61.

YSGGGYYLDLPGSRQGSAEALRAW [L24W]: the protein stability index came out at 1.62.

YSGGGYYLDLPGSRQGSAEALRAM [L24M]: the protein stability index amounted to 1.63.

Consider YSGGGYYLDLPGSRQGSAEALRAC [L24C], for which the protein stability index was 1.62.

Take YSGGGYYLDLPGSRQGSAEALRAP [L24P]: the protein stability index amounted to 2.7.

As to YSGGGYYLDLPGSRQGSAEALRAN [L24N], the protein stability index was found to be 2.1.

As for YSGGGYYLDLPGSRQGSAEALRAD [L24D], the protein stability index amounted to 1.6.

In the case of YSGGGYYLDLPGSRQGSAEALRAG [L24G], the protein stability index is 2.63.

As to YSGGGYYLDLPGSRQGSAEALRAK [L24K], the protein stability index came out at 2.91.

As for YSGGGYYLDLPGSRQGSAEALRAH [L24H], the protein stability index was 2.65.

For the variant YSGGGYYLDLPGSRQGSAEALRAI [L24I], the protein stability index came out at 1.63.

For YSGGGYYLDLPGSRQGSAEALRAS [L24S], the protein stability index worked out at 2.41.

Take YSGGGYYLDLPGSRQGSAEALRAV [L24V]: the protein stability index came out at 2.33.

As to YSGGGYYLDLPGSRQGSAEALRAQ [L24Q], the protein stability index is 1.17.

Turning to YSGGGYYLDLPGSRQGSAEALRAE [L24E], the protein stability index came out at 1.49.

As for YSGGGYYLDLPGSRQGSAEALCAL [R22C], the protein stability index worked out at 2.11.

Consider YSGGGYYLDLPGSRQGSAEALHAL [R22H], for which the protein stability index stood at 1.92.

For YSGGGYYLDLPGSRQGSAEALYAL [R22Y], the protein stability index is 2.02.

As for YSGGGYYLDLPGSRQGSAEALWAL [R22W], the protein stability index stood at 3.79.

Regarding YSGGGYYLDLPGSRQGSAEALGAL [R22G], the protein stability index was 1.69.

Take YSGGGYYLDLPGSRQGSAEALQAL [R22Q]: the protein stability index worked out at 1.5.

Take YSGGGYYLDLPGSRQGSAEALDAL [R22D]: the protein stability index was 1.26.

Consider YSGGGYYLDLPGSRQGSAEALTAL [R22T], for which the protein stability index came out at 1.82.

Take YSGGGYYLDLPGSRQGSAEALMAL [R22M]: the protein stability index was 2.61.

Regarding YSGGGYYLDLPGSRQGSAEALSAL [R22S], the protein stability index came out at 2.92.

For YSGGGYYLDLPGSRQGSAEALNAL [R22N], the protein stability index was 1.65.

With YSGGGYYLDLPGSRQGSAEALPAL [R22P], the protein stability index was found to be 1.78.

In the case of YSGGGYYLDLPGSRQGSAEALEAL [R22E], the protein stability index was found to be 1.86.

As for YSGGGYYLDLPGSRQGSAEALAAL [R22A], the protein stability index was determined as 2.13.

For the variant YSGGGYYLDLPGSRQGSAEALLAL [R22L], the protein stability index turned out to be 1.36.

Take YSGGGYYLDLPGSRQGSAEALIAL [R22I]: the protein stability index is 3.18.

Consider YSGGGYYLDLPGSRQGSAEALVAL [R22V], for which the protein stability index is 2.03.

Turning to YSGGGYYLDLPGSRQGSAEALKAL [R22K], the protein stability index came out at 2.08.

Regarding YSGGGYYLDLPGSRQGSAEALFAL [R22F], the protein stability index stood at 2.84.

Take YSGGGYYLDLPGSRQISAEALRAL [G16I]: the protein stability index turned out to be 2.3.

For the variant YSGGGYYLDLPGSRQNSAEALRAL [G16N], the protein stability index was 1.51.

For the variant YSGGGYYLDLPGSRQTSAEALRAL [G16T], the protein stability index was found to be 1.84.

For YSGGGYYLDLPGSRQSSAEALRAL [G16S], the protein stability index worked out at 2.27.

On to YSGGGYYLDLPGSRQPSAEALRAL [G16P], for which the protein stability index was determined as 1.92.

Regarding YSGGGYYLDLPGSRQKSAEALRAL [G16K], the protein stability index is 1.97.

For YSGGGYYLDLPGSRQVSAEALRAL [G16V], the protein stability index was found to be 1.77.

For YSGGGYYLDLPGSRQLSAEALRAL [G16L], the protein stability index amounted to 1.57.

Turning to YSGGGYYLDLPGSRQHSAEALRAL [G16H], the protein stability index is 2.66.

Regarding YSGGGYYLDLPGSRQYSAEALRAL [G16Y], the protein stability index stood at 2.13.

With YSGGGYYLDLPGSRQRSAEALRAL [G16R], the protein stability index was 1.98.

Regarding YSGGGYYLDLPGSRQWSAEALRAL [G16W], the protein stability index worked out at 2.5.

YSGGGYYLDLPGSRQQSAEALRAL [G16Q]: the protein stability index was 2.

As to YSGGGYYLDLPGSRQMSAEALRAL [G16M], the protein stability index came to 1.02.

As to YSGGGYYLDLPGSRQGSAEALRIL [A23I], the protein stability index was found to be 1.66.

As for YSGGGYYLDLPGSRQGSAEALRGL [A23G], the protein stability index came to 1.44.

Turning to YSGGGYYLDLPGSRQGSAEALRKL [A23K], the protein stability index was 1.72.

As for YSGGGYYLDLPGSRQGSAEALRWL [A23W], the protein stability index worked out at 2.22.

Consider YSGGGYYLDLPGSRQGSAEALRYL [A23Y], for which the protein stability index worked out at 1.53.

With YSGGGYYLDLPGSRQGSAEALRFL [A23F], the protein stability index was 2.52.

Regarding YSGGGYYLDLPGSRQGSAEALREL [A23E], the protein stability index came to 1.95.

Turning to YSGGGYYLDLPGSRQGSAEALRTL [A23T], the protein stability index was 2.24.

For the variant YSGGGYYLDLPGSRQGSAEALRCL [A23C], the protein stability index worked out at 1.59.

On to YSGGGYYLDLPGSRQGSAEALRVL [A23V], for which the protein stability index was 2.45.

As for YSGGGYYLDLPGSRQGSAEALRQL [A23Q], the protein stability index was determined as 2.53.

Take YSGGGYYLDLPGSRQGSAEALRML [A23M]: the protein stability index came out at 2.03.

As for YSGGGYYLDLPGSRQGSAEALRDL [A23D], the protein stability index came out at 2.21.

Consider YSGGGYYLDLPGSRQGSAEALRSL [A23S], for which the protein stability index is 1.86.

On to YSGGGYYLDLPGSRQGSAEALRNL [A23N], for which the protein stability index is 2.05.

For YSGGGYYLDLPGSRQGSAEALRRL [A23R], the protein stability index turned out to be 2.26.

For YSGGGYYLDLPGSRQGSAEALRLL [A23L], the protein stability index came to 1.73.

Turning to YSGGGYYLDLPGSRQGSAEALRPL [A23P], the protein stability index is 2.19.

YSGGGYYLDLPGSRQGSAEALRHL [A23H]: the protein stability index was 2.09.
